The values that follow come from PMC5870055, “Structural and Mechanistic Analysis of the Choline Sulfatase from Sinorhizobium melliloti: A Class I Sulfatase Specific for an Alkyl Sulfate Ester” (Journal of Molecular Biology, 2018).

Residue numbers refer to the chain shown, from its start. Numbers in names are those of the source.

Data set [1] relates to O=[N+]([O-])c1ccc(OS(=O)(=O)O)cc1. Put plainly: purified protein. The settings on record: 100 mM Tris-HCl pH 7.6, 25 °C.
Data set [2] concerns C[N+](C)(C)CCOS(=O)(=O)[O-]. As to the kind of experiment: purified protein. The conditions noted are these: pH 7.6; 25.0 °C.
Data set [3] concerns the target T1, SmCS (Sinorhizobium meliloti choline sulfatase, BetC) (Sinorhizobium meliloti, UniProt O69787).
T1 sequence (O69787 1-512): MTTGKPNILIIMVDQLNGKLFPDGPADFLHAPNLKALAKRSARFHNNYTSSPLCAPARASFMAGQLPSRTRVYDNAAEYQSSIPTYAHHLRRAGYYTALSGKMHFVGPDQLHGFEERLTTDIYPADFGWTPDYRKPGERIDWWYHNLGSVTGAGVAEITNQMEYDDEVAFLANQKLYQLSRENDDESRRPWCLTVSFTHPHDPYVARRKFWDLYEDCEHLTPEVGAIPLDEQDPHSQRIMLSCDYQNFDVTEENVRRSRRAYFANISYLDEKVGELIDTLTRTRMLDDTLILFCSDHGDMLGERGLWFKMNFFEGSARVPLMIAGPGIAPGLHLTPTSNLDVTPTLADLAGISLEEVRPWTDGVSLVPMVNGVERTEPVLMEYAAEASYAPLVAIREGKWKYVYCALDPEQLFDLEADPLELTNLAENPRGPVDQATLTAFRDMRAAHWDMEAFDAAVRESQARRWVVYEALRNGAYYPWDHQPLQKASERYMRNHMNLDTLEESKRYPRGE
As to the kind of experiment: product inhibition kinetics. It is filed as biochemical. The settings on record: competitive; range over the pH values tested, single values in Fig. S11; 25 °C. An excerpt:
product inhibition kinetics on SmCS (Sinorhizobium meliloti choline sulfatase, BetC) | The reaction product choline can act as a competitive inhibitor, albeit a relatively weak one

Substrate in data set [4]: COP(=O)(O)Oc1ccc([N+](=O)[O-])cc1
As to the kind of experiment: purified protein. The conditions noted are these: 100 mM imidazole-HCl pH 6.0, 25 °C.

Substrate in data set [5]: O=[N+]([O-])c1ccc(OS(=O)(=O)O)cc1
Put plainly: purified protein.

Substrate in data set [6]: C[N+](C)(C)CCOS(=O)(=O)[O-]
Put plainly: purified protein. The settings on record: 100 mM Tris-HCl pH 7.6, 25 °C.

Substrate in data set [7]: C[N+](C)(C)CCOP(=O)([O-])O
Put plainly: purified protein. The conditions noted are these: 100 mM Tris-HCl pH 7.6, 25 °C, no metal added.

The mark [8] stands for this setting: 100 mM imidazole-HCl pH 6.0, 25 °C.
Setting [9] is: 100 mM Tris-HCl pH 7.6, 25 °C, made without FGE.

For the molecule “SmCS (Sinorhizobium meliloti choline sulfatase, BetC) (Sinorhizobium meliloti 1021; DEL501-512)”, in data set [1], the Km entry is reported as “(9.0 ± 0.1) × 10^-2 M”, the catalytic constant (kcat) is 0.0159 ± 0.0001 s⁻¹ and the kcat/Km is 0.178 ± 0.004 M⁻¹ s⁻¹. In data set [2], the Km entry is given as “(1.09 ± 0.01) × 10^-2 M”, the kcat was 0.021 ± 0.002 s⁻¹ and the kcat/Km came to 1.93 ± 0.01 M⁻¹ s⁻¹.

As to `C[N+](C)(C)CCO` [choline], the KIC in data set [3] is ~ 52–6.3 mM.

B1: SmCS (Sinorhizobium meliloti choline sulfatase, BetC) (Sinorhizobium meliloti 1021) (protein)
chain: T1 sequence (O69787 1-512)
B1: the turnover number (kcat) in data set [4] was > 0.004 s⁻¹; in data set [5] (setting [8]), 0.22 ± 0.01 s⁻¹; in data set [6] (no metal added) it was 2.4 ± 0.2 s⁻¹; in data set [7] it was 0.0267 ± 0.0001 s⁻¹. Besides, the Km entry is on record as “(1.9 ± 0.2) × 10^-2 M” in data set [5] (setting [8]), “(5.0 ± 0.6) × 10^-4 M” in data set [6] (no metal added) and “(2.1 ± 0.2) × 10^-3 M” in data set [7]. In addition, the catalytic efficiency (kcat/Km) in data set [5] (setting [8]) came out at 12 ± 2 M⁻¹ s⁻¹; in data set [6] (no metal added), 4800 ± 500 M⁻¹ s⁻¹; in data set [7] it was 13 ± 1 M⁻¹ s⁻¹.

B2: SmCS (Sinorhizobium meliloti choline sulfatase, BetC) (Sinorhizobium meliloti 1021; K309L) (protein)
chain: T1 sequence (O69787 1-512) with K309L
As for B2, in data set [5] (100 mM Tris-HCl pH 7.6, 25 °C), the Km entry is given as “(8.9 ± 2.7) × 10^-2 M”, the kcat is 1.6e-05 ± 5e-06 s⁻¹ and the catalytic efficiency (kcat/Km) came to 0.000176 ± 1e-06 M⁻¹ s⁻¹.

B3: SmCS (Sinorhizobium meliloti choline sulfatase, BetC) (Sinorhizobium meliloti 1021; E386L) (protein)
chain: T1 sequence (O69787 1-512) with E386L
Take B3: in data set [5] (100 mM Tris-HCl pH 7.6, 25 °C), the Km entry is “(5.7 ± 0.4) × 10^-2 M”, the catalytic constant (kcat) was 0.76 ± 0.03 s⁻¹ and the kcat/Km was 13 ± 1 M⁻¹ s⁻¹. In data set [6], the kcat is > 0.012 s⁻¹ and the specificity constant (kcat/Km) worked out at 0.81 ± 0.01 M⁻¹ s⁻¹.

B4: SmCS (Sinorhizobium meliloti choline sulfatase, BetC) (Sinorhizobium meliloti 1021; H104A) (protein)
chain: T1 sequence (O69787 1-512) with H104A
As to B4, in data set [6], the Km entry was “(1.33 ± 0.01) × 10^-2 M”, the kcat was 0.0347 ± 0.0001 s⁻¹ and the specificity constant (kcat/Km) is 2.6 ± 0.02 M⁻¹ s⁻¹.

B5: SmCS (Sinorhizobium meliloti choline sulfatase, BetC) (Sinorhizobium meliloti 1021; C54S) (protein)
chain: T1 sequence (O69787 1-512) with C54S
B5: in data set [5] (setting [9]), the Km entry is “(3.9 ± 0.2) × 10^-2 M”, the turnover number (kcat) was 7.3e-05 ± 1e-06 s⁻¹ and the kcat/Km turned out to be 0.00189 ± 6e-05 M⁻¹ s⁻¹. Also, in data set [6] (made without FGE), the Km result is given as “(9.4 ± 0.1) × 10^-3 M”, the kcat came out at 0.0112 ± 0.0002 s⁻¹ and the kcat/Km was 1.19 ± 0.02 M⁻¹ s⁻¹.

For orientation: kcat means the number of substrate molecules converted per active site and unit of time at saturation. What is called kcat/Km is the turnover number divided by the Michaelis constant.
